The target of assay [1] is T1, CXCR4 chemokine receptor (human), P61073.
T1 chain: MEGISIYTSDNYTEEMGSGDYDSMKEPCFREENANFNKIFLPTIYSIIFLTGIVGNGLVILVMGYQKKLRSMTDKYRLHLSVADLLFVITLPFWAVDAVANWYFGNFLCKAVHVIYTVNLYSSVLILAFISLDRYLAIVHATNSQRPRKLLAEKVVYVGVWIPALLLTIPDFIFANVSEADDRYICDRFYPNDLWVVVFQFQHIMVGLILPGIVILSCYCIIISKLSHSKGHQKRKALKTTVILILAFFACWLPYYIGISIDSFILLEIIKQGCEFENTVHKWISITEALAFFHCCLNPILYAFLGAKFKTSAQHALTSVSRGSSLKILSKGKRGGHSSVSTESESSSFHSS
The experiment in a line: ^125I-SDF-1α competitive binding assay, IC50 against SDF-1.

Assay [2] shares this target.
Assay [3] shares this target. The assay is described as follows: anti-CXCR4 mAb 12G5 competitive binding assay, IC50 against SDF-1.
The target is the same in assay [4]. The experiment in a line: anti-CXCR4 mAb 12G5 competitive binding assay.
For assay [5] the target is unchanged. The assay is described as follows: cell-based or functional assay.

Like-named read-outs stand apart in the source and are kept apart here.

We go through one molecule from patent US20030220482A1, “Novel peptide antagonist of CXCR4 derived from the N-terminus of the viral chemokine vMIP-II” (priority 2000, published 2003).

LGASWHRPDKCCLGYQKRPLP (modifications not checked) [V1 peptide (vMIP-II, 1-21)]: the fold less potent than SDF-1 in assay [1] turned out to be 70 fold; in assay [3] it was 33 fold. In addition, the IC50 (usually the concentration needed to halve the response being measured) stood at 190 nM in assay [2] and 640 nM in assay [4]. In assay [5], this molecule registered a chemotaxis assay, IC50 of 1000 nM. The intracellular calcium influx in Sup T1 cells: block of the SDF-1 signal in assay [5] came out at 200 µM.
